In the nanobody polyreactivity screen of Harvey et al. (2022):

Assay: yeast display, Sf9 membrane polyspecificity reagent, FACS + sequencing; frameworks hold sequencing errors
Procedure, shortened: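 Nanobodies from a synthetic yeast display library (Saccharomyces cerevisiae BJ5465), induced 36–48 hours with galactose, were stained 1 hour at 4 °C with 10% biotinylated, detergent-solubilized Sf9 membrane reagent, enriched on streptavidin microbeads, then FACS-sorted. Anti-HA (expression) and streptavidin (reagent binding) fluorescence set low and high (top ~1%) gates. Polyreactivity labels come from the gate of origin. Genes were colony-PCR amplified, MiSeq 2 × 250 sequenced and filtered by CDR length.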

Sequence | polyreactivity (PSR sort gate)
QVQLVESGGGLFQEGGSLRLSCAASGFTFLYYDMGWYRQAPGKERELVAAINSSGGGTYYADSVKGRFTISRDNAKNTVYLQMNSLKPEDTAVYYCAVSWSDGYDYWGQGTQVTVSS | high polyreactivity
QVQLVESGGGLFQSGGSLRLTSAASGSTFAYKAMGWYRQAPGKEREFVAAITIGSTYADSVKGRFTISRDNAKNTVYLQMNSLKPEDTAVYYCAVRRPRRNYNYPYDYWGQGTQVTVSS | low polyreactivity
QVQLVESGGGLGQAAGSLRLSCAASGHIFGPYAMGWYSQAPGKERELVAAITSGGTTYYADSVKGRFTISRDNAKNTVYLQMNSLKPEDTAVYYCAAKFELTRYSSPFFWYDSWGQGTKVTVSS | high polyreactivity
QVQLVESGGGLGQAGGSLRLICAASGFIFRYNAMGWYRQAPGKERELVAGISRSGGRTYYADSVKGRFTISRDNAKNTVYLQMNSLKPEDTAVYYCNAEWVGGAGGYYYWGQGTQVTVSS | low polyreactivity
QVQLVESGGGLGQAGGSLRLSCAASGFTFRYYAMGWNRQAPGKERELVAAISASGGSTYYADSVKGRFTISRDNAKNTVYLQMNSLKPEDTAVYYCARYYAKMDYWGQGTQVTVSS | high polyreactivity
QVQLVESGGGLGQAGGSLRLSCAASGFTFVFYAMGWYRQAPGKERELVAGISRTGGSTYYADSVKGRFTISRDNAKNTVYLQMNSLKPEDTAVYYCAAVSRGFGSRGYDYWGQGTQVTVSS | high polyreactivity
QVQLVESGGGLGQAGGSLRLSCAASGLIFGLYAMGWYRQAPGKERELVAAISYRTDSTYADSVKGRFTISRDNAKNTVYLQMNSLKPEDTAVYYCAADLRVSVRYYYWGQGTQVTVSS | low polyreactivity
QVQLVESGGGLGQAGGSLRLSCAASGRIFGVYGMGWYRQAPGNDRELVAAITLAGRTNYADSVKGRFTISRDNAKNTVYLQMNSLKPQDTAVYYCAAEKRKLFQGVARYRYEDWGQGTQVTVSS | low polyreactivity
QVQLVESGGGLGQAGGSLRLSCAASGRIFRYNAMGWYRQAPGKERELVAAITGSGGSTYYADSVKGRFTISRDNAKNTVYLQMNSLKPEDTAVYYCNTYTYYSRMDYWGQGTQVTVSS | high polyreactivity
QVQLVESGGGLGQAGGSLRLSCAASGRIFYSNVMGWYRQAHGKEREFVAAISGRTGGTYYADSVKGRFTISRDNAKNTVYLQMNSLKPEDTAVYYCAARVIYYYGSGPYDYWGQGTQVTVSS | low polyreactivity
QVQLVESGGGLGQAGGSLRLSCAASGRTFFRYAMGWYRQAPGKERELVAAISSRGGSTYYADSVKGRFTISRDNAKNTVYLQMNSLKPEDTAVYYCNAAAFINFILYDYWGQGTQVTVSS | high polyreactivity
QVQLVESGGGLGQAGGSLRLSCAASGRTVYYNGMGWYRPAPGKEREVVAAITSGGTTSYADSVKGRFTISRDNAKNTVYLQMISLKPEETAVYYSNADYWAVNYDYWGQGTQVTVSS | low polyreactivity
QVQLVESGGGLGQAGGSLRLSCAASGSIFWGNAMGWYRQAPGKESELVACIRNSGTSTYYADSVKWRFTISRDNAKNTVYLKMNSLKPVDTAVYYCAAADGRQYSRYYWRGHDYWGQGTQVTVSS | low polyreactivity
QVQLVESGGGLGQAGGSLRLSCAASGSIFYYYAMGWYRQAPGKERELVASITSSGGTTSYADSVKGRFTISRDNAKNTVNLQMNSLKPEDTEVYYGNAQVYRYRIGYDYWGQGTQVTVSS | low polyreactivity
QVQLVESGGGLGQAGGSLRLSCAASGSIIKPYAMGWYRQAPGKERELVAAIRSSGGRTNYADSVKGRFTISRDNAKNSVYFQMNSLKPEDTGVYYCAAGYVSYWYYRYDYWGQGTQVTVSS | high polyreactivity
QVQLVESGGGLGQAGGSLRLSCAASGVSNAMGWYRQAPGKERELVAAISRSGGSTYYADSVKGRFTISRDNAKNTVYLQMNRLKPEDTAVYYCNARPYWIDGSGLFPYDYWGQGSQVTVSS | high polyreactivity
QVQLVESGGGLGQAGGSLRLSCAPSGFIFTLYAMGWYRQAPGKERELVAAIDTSVASTYYADSVKGRFTLSRENAKYTVYLQMNSLKPEDTAVYYCNADGASYLILSYYQPYDYWGQGTQVTVSS | low polyreactivity
QVQLVESGGGLGQAGGSLRLSCASSGFTFVPYAMVWYSPAPGKERELVAAIDFDDATTYYADSVKGRFTISRDNAKNTVYLQMNSMKPEDTALYYCAADGFYAPDDAPFYYWGQGTQVTVSS | high polyreactivity
QVQLVESGGGLGQAGGSLRLSCTASGRIFPYYAMGWYRQAPGKERELVAALSGRGGRTYYADSVKGRFTISRDNAKNTVYLQMNSLNPEDTAVYYCNARVQAVHYGYWGQGTQVTVSS | high polyreactivity
QVQLVESGGGLGQAGGSLRLTCAASGSIFRSYAMGWYRQAPGKESEFVATISSSTGSTYYADSVKGRFSISRDNAKNTVYLPMNSLKPEFTAVYYCAAVQPVKSSSGYHFWYYWGQGTQVTVSS | high polyreactivity
QVQLVESGGGLGQAGGSLRLTCAASGSTFDYYAMGWYRPAPRKERELVAAISSSGSSTYYADSVKGRFTISRDIAKNTVYLQMNSLNPEDTAVYFCAIGTNYRDDYWGQGTQVTVSS | low polyreactivity
